Binding result and Kd data for 5 molecules are collected here from article PMC9352719, “Interaction between transcribing RNA polymerase and topoisomerase I prevents R-loop formation in E. coli”.

The target of data set [1] is T1, EcTopoI (topoisomerase I) (Escherichia coli DY330, UniProt P06612 1-865). Description: competition; vs labeled Consensus R; about as efficient as Consensus R; EMSA: 10 mM Tris-HCl pH 7.5, 50 mM NaCl, 6 mM MgCl2, 37 C 10 min; MST: same plus 0.05% Tween-20, 22 C. The settings on record: protein: recombinant; single strand. For orientation: Mobility shift assays separate free from complexed probe on a gel.

In data set [2] the target is T1, EcTopoI (topoisomerase I). Description: EMSA; 6 mM Mg2+; EMSA: 10 mM Tris-HCl pH 7.5, 50 mM NaCl, 6 mM MgCl2, 37 C 10 min; MST: same plus 0.05% Tween-20, 22 C. The settings on record: protein: recombinant; label: 5'-Cy5; single strand.
Data set [3] deals with T1, EcTopoI (topoisomerase I). Description: MST; 6 mM Mg2+; range for both random oligos; EMSA: 10 mM Tris-HCl pH 7.5, 50 mM NaCl, 6 mM MgCl2, 37 C 10 min; MST: same plus 0.05% Tween-20, 22 C. The settings on record: protein: recombinant; label: 5'-Cy5; single strand.

The Kd is a measure of binding affinity in units of concentration.

T1 sequence (P06612 whole entry): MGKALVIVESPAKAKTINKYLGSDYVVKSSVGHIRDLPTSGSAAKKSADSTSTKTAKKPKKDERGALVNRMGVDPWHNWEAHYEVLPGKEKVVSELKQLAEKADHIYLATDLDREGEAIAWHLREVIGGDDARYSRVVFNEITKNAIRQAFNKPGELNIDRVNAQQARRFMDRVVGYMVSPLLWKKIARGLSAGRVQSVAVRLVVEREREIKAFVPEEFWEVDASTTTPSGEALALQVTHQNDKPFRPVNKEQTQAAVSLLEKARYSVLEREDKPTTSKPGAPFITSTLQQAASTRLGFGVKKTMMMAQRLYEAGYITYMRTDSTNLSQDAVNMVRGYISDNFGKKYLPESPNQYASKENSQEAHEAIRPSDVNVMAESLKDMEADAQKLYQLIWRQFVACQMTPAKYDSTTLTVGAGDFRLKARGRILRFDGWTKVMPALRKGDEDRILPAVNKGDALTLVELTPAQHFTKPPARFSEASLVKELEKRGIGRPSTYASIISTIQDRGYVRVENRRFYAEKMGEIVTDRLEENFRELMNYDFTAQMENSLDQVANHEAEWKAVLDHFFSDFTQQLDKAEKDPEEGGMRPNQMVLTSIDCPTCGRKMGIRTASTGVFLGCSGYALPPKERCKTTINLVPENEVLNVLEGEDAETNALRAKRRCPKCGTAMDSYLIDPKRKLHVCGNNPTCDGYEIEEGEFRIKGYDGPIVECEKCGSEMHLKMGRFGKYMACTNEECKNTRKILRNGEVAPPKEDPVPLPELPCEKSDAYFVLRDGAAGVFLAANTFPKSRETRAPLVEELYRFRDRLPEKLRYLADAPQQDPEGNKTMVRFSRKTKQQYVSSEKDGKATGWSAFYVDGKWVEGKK

Turning to CGCAAAAAAAAAAAAAAAAAAAACGC (ssDNA) [Poly-A, unlabeled], the binding result in data set [1] is recorded as “binds”.
Consider CGCAAAAATAATGAAGAAAAAAACGC (ssDNA) [Consensus R], for which the Kd in data set [2] was found to be 207 ± 76 nM.
Consider GCGTTTTTTTCTTCATTATTTTTGCG (ssDNA) [Consensus F], for which the Kd in data set [2] worked out at 190 ± 87 nM.
For GCGCACGTAATCCGCAGTGCGGTGCG (ssDNA) [Random F], the dissociation constant (Kd) in data set [3] is ~324 nM.
On the same count and under the same terms, then CGCTCCGCACTGCGGATTACGTGCGC (ssDNA) [Random R], with ~324 nM.
